Data as given in publication PMC5377317, “Generation of Aptamers from A Primer-Free Randomized ssDNA Library Using Magnetic-Assisted Rapid Aptamer Selection”.

Target: T1, C-reactive protein (CRP) (human, UniProt P02741 19-224)
T1 sequence: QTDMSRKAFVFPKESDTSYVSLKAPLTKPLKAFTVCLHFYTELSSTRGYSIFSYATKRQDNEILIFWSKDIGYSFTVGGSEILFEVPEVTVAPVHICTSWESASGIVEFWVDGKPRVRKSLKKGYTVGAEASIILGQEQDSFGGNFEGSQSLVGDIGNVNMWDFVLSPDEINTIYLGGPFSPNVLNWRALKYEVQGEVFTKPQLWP
Experiment: magnetic bead pull-down with q-PCR, saturation fit; apparent Kd; 2 mM MgCl2; CRP-MNPs; BD buffer: 50 mM NaH2PO4 pH 8.0, 150 mM NaCl, 5 mM KCl, 2 mM MgCl2, 0.05% Tween-20; room temperature, 30 min; aptamer 1.5625-200 nM
Details: protein: commercial; tags: biotinylated (EZ-Link Sulfo-NHS-Biotin), on streptavidin magnetic nanoparticles; chain copies: 5; single strand, small loop predicted by Mfold (dG -2.93 kcal/mol)

Work on GTTGACGGGCGATTGGTCTT (ssDNA) [PF20N-RO-MARAS-84-1] yielded a Kd of 23.6 ± 0.82 nM.
